For assay [1], the target named is mAb CH59 (human). Nature of the assay: SPR.
For assay [2], the target named is V1–V2 bnAb PG9 (human). Nature of the assay: SPR. (In general: In SPR one partner is held on a chip, and binding of the other changes the refractive index at the surface.)

For orientation: Kd means a measure of binding affinity in units of concentration. A lower Kd goes with tighter binding.

Consider AE.A244 gp120Δ11 (natural protein), for which the Kd in assay [1] is 2.2 nM; in assay [2], 42.1 nM.
